Positions count from the first letter of the chain named.
T1: human TREM2 on primary cells (human, UniProt Q9NZC2 19-230)
T1 construct: also called TREM2 on hDC; hMAC
T1 sequence: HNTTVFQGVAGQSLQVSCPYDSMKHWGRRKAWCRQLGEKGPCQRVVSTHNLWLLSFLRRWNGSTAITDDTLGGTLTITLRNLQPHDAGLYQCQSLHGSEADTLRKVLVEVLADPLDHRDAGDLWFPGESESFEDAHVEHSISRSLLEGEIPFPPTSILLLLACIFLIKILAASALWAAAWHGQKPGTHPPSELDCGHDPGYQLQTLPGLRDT

T2: recombinant human TREM2-DAP12 fusion protein expressed on cells (human)
T2 construct: also called HEKhT2; 293 cells expressing human TREM2; not shown: None of these limits is stated
T2 chain: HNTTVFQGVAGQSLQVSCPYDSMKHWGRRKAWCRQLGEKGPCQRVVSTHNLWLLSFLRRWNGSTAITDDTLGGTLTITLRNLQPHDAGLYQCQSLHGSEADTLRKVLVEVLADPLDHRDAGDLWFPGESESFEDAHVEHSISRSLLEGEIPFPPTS

T3: mouse TREM2 on cells (mouse, UniProt Q99NH8 19-227)
T3 construct: recombinant on BWZ cells (with DAP12) and native on mouse macrophages; also called BWZmT2; BWZ T2
T3 sequence: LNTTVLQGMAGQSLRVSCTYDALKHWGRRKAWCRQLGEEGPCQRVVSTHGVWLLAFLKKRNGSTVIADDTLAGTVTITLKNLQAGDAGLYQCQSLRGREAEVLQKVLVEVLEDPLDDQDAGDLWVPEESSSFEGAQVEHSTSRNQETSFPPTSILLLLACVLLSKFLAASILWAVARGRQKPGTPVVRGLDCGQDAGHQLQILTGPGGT

B1: 3A2 (antibody, IgG1, V domains shown)
VH: QVQLQQSGAELVKPGASVKMSCKTSGYPFSNFWITWVKQRPGQGLVWIGDIYPGSDNSNYNEKFKTKATLTVDTSSSTAYMHLSSLTSEDSAVYFCAREAYYTNPGFAYWGQGTLVTVST
VL: DVVMTQTPLSLPVSLGDQASISCRSSQTIIHSNGNTYLEWYLRKPGQSPKLLIYKVSNRFSGVPDRFSGSGSGTDFTLKISRVEAEDLGVYYCFQGSHVPYTFGGGTELEIK
notes: mIgG1; variable domains built FR1-HVR1-FR2-HVR2-FR3-HVR3-FR4
B2: 10A9 (antibody, IgG1, V domains shown)
VH: B1 VH with L11V, S58R, Y60F, K63R, T120A
VL: B1 VL with S61C
notes: mIgG1
B3: 9G1 (antibody, IgG1, V domains shown)
VH: QVQLQQSGAELVKPGASVKLSCKASGYIFTTYWIHWVKQRPGRGPEWIGRIDPNNGDTNYNEKFKTKATLTVDKPSSTADMQLSSLTSEDSAVYYCVMTGTDFDYWGQGTTLTVSS
VL: DVLMTQTPLSLPVSLGDQASISCRFSQSLVHSNGNTYLHWYLQKPGQSPKLLIYKVSNRFSGVPDRFSGSGSGTDFTLRISGVEAEDLGVYFCSQSTRVPPTFGGGTKLEIK
notes: mIgG1
B4: 8A1 (antibody, IgG2a, V domains shown)
VH: EVQLQQSGAELVKPGASVKISCKASGYAFSNYWMSWVKQRPGKGLEWIGQIYPGDGDTKYNGKFEGKATLTADKSSSTAYMQLSSLTSEDSAVYFCSREKGADYYGSTYSAWFSYWGQGTLVTVSA
VL: DIQMTQSPASLSVSVGETVTITCRTSENVYSNLAWYQQKQGKSPQLLVYAATNLADGVPSRFSASGSATQFSLKINSLQSADFGSYYCHHFWGTPYTFGGGTKLEMN
notes: mIgG2a
B5: 6H2 (antibody, IgG2a, V domains shown)
VH: QVQLQESGPGLVQPSQSLSIICTVSAFSLTNYAVHWIRQSPGKGLEWLGVIWSGGSTAFNAAFISRLNISKDNSKSQVFFKMNSLQSDDTAIYYCATHYYRSTYAFSYWGQGTLVTVSA
VL: B1 VL with V3L, T28S, I30V, R43Q, Y101F, G105S, E108K
notes: mIgG2a
B6: 2H8 (antibody, IgG1, V domains shown)
VH: EVQLVESGGGLVQPKGSLKLSCAASGFSFNTYAMNWVRQAPGKGLEWIARIRSKSNNYATYYADSVKDRFTCSRDDSENMFYLQLSSLKTEDTAMYYCVRHGDGNLWYIDVWGTGTTVTVSS
VL: NVLTQSPALMSASPGEKVTMTCSASSSVSYMYWYQQKPRSSPKPWIYLTSILASGVPARFSGSGSGTSYSLTISSMEAEDAATYYCQQWSFNPYTFGGGTKLVIK
notes: mIgG1
B7: 7F8 (antibody, IgG1, V domains shown)
VH: B6 VH with F70I, S122T
VL: VLTQSPALMSASPGEKVTMTCSASSSVSYMYWYQQKPRSSPKPWIYLTSILASGVPARFSGSGSGTSYSLTINNMEAEDAATYYCQQWSFNPYTFGGGTKLVIK
notes: mIgG1

biological target: T1, human TREM2 on primary cells; assay: FACS, primary hMAC

Binder	% Positive hMAC [%]
B1	18
B2	64
B3	20
B4	34

biological target: T1, human TREM2 on primary cells; assay: FACS, primary hDC

Binder	% Positive hDC [%]
B1	77
B5	83.9
B2	96
B3	60
B4	94

Biological target: T2, recombinant human TREM2-DAP12 fusion …
Assay: KD cell binding

Binder	Kd [nM]
B1	4.98
B5	5.4
B2	4.24
B3	9.06
B4	4.64

Biological target: T2, recombinant human TREM2-DAP12 fusion …
Assay: FACS, HEKhT2 cells

Binder	MFI HEKhT2 [MFI]
B1	7300
B5	13500
B2	11900
B3	3080
B4	11000

biological target: T3, mouse TREM2 on cells; assay: KD cell binding

Binder	Kd [nM]
B6	6.86
B7	1.78

biological target: T3, mouse TREM2 on cells; assay: FACS on thioglycollate-induced macrophages of wild-type mice (mouse TREM2 only), gated CD11b+ F4/80+

Binder	binding result
B2	no binding
